How the values were obtained:
[1] = target: T1, mouse CTLA-4 (mouse, UniProt P09793 36-161, limits assumed); test: affinity ELISA, antibody coated, mouse CTLA-4 titrated; 2C8 IgG1 with LALA mutation (L234A, L235A)
T1 construct: construct not described; also called murine CTLA-4; the mouse protein
Description: (§1) The “LALA” mutation refers to mutation of leucine residues at positions 234 and […] of the of the Fc region to alanine (i.e. L234A, L235A); this mutation is known to weaken interaction between Fc and Fc-γR, and therefore to prevent ADCC activity (see e.g. Hezareh et al., J Virol (2001) 75(24):12161-12168).

[2] = target: T1, mouse CTLA-4; test: avidity ELISA, mouse CTLA-4 coated, antibody titrated
Description: (§2) The response curve was plotted (see FIG. 10), and EC50 was calculated.

[3] = target: T2, human CTLA-4 (human, UniProt P16410 36-161, limits assumed); test: cell-based or functional assay
T2 sequence (P16410 36-161 limits assumed): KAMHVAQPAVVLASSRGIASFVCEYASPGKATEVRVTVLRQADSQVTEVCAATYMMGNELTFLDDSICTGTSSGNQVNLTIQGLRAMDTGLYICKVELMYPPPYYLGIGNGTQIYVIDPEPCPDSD

[4] = target: T2, human CTLA-4; test: blocking ELISA: antibody pre-incubated with human CTLA-4, binding of CTLA-4 to coated CD80 detected
[5] = target: T2, human CTLA-4; test: ELISA, human CTLA-4 coated, Fab titrated
[6] = target: T3, Human CD28 conjugated to human Fc (human, UniProt P10747 19-152); test: ELISA, human CD28-Fc coated, antibody titrated
T3 construct: not shown: human Fc

[7] = target: T1, mouse CTLA-4; test: affinity ELISA, antibody coated, mouse CTLA-4 titrated; 2C8 IgG4
Description: as §1

[8] = target: T2, human CTLA-4; test: affinity ELISA, antibody coated, human CTLA-4 titrated
[9] = target: T2, human CTLA-4; test: SPR, antibody immobilised on chip, human CTLA-4 flowed over
[10] = target: T1, mouse CTLA-4; test: affinity ELISA, antibody coated, mouse CTLA-4 titrated; 2C8 IgG1
Description: as §1

[11] = target: T3, Human CD28 conjugated to human Fc; test: ELISA, human CD28-human Fc coated, antibody titrated
[12] = target: T4, mouse CTLA-4 expressed on HEK-293.6E cells (mouse, UniProt P09793 36-223); test: flow cytometry on HEK-293.6E cells transfected with mouse CTLA-4
T4 construct: whole, on cells; also called cell surface-expressed mouse CTLA-4

[13] = target: T5, Cynomolgus/Rhesus CTLA-4 (cynomolgus/rhesus); test: ELISA, antibody coated, Cynomolgus/Rhesus CTLA-4 titrated
T5 construct: Printed as one protein 'Cynomolgus/Rhesus CTLA-4'

[14] = target: T6, human CTLA-4 expressed on HEK-293.6E cells (human, UniProt P16410 36-223); test: flow cytometry on HEK-293.6E cells transfected with human CTLA-4
T6 construct: whole, on cells; also called cell surface-expressed human CTLA-4
T6 sequence (P16410 36-223): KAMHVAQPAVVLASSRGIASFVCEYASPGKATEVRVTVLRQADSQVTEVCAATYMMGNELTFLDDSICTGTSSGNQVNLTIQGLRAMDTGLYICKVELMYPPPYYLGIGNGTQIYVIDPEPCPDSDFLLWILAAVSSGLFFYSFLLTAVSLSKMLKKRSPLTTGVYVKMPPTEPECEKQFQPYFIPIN

[15] = target: T2, human CTLA-4; test: avidity ELISA, human CTLA-4 coated, antibody titrated
Description: as §2

[16] = target: T1, mouse CTLA-4; test: affinity ELISA, antibody coated, mouse CTLA-4 titrated; 2C8_gI IgG1
Description: as §1

B1: 2C8 IgG1 with LALA mutation (antibody, V domains shown)
VH: QVQLQQSGPGLVKPSQTLSLTCAISGDTVSSNTAAWNWIRQSPSRGLEWLGRTYYRSKWYSDYGLSVKSRMTINADTSKNQVSLHLNSVTPEDTAVYYCAREGSGGTLIYWGQGTLVTVSS
VL: DIQLTQSPSSVSASVGDRVTITCRATQGISSWLAWYQQKPGKAPKLLIYAASSLQSGVPSRFSGSGSGTEFTLTISSLQPEDFATYYCQQANTLPLFTFGPGTKVDIK
notes: also called 2C8 with LALA mutation; 2C8 with the mutation
B1 was tested, and the EC50 [1] was 5.1 nM, the EC50 [2] was 8 nM and the “EC50, T cell reactivation assay (IL-2 secretion by Jurkat T cells)” value [3] was 0.7 to 1.2 nM.

B2: anti-CTLA-4 antibody clone 2C8, Fab (Fab, V domains shown)
VH: QVQLQQSGPGLVKPSQTLSLTCAISGDTVSSNTAAWNWIRQSPSRGLEWLGRTYYRSKWYSDYGLSVKSRMTINADTSKNQVSLHLNSVTPEDTAVYYCAREGSGGTLIYWGQGTLVTVSS
VL: DIQLTQSPSSVSASVGDRVTITCRATQGISSWLAWYQQKPGKAPKLLIYAASSLQSGVPSRFSGSGSGTEFTLTISSLQPEDFATYYCQQANTLPLFTFGPGTKVDIK
notes: Fab from a human antibody phage display library
With B2 the “IC50 (read off the curve)” value [4] was about 5 nM, the “EC50 (read off the curve)” value [5] was about 1 nM and the binding result [6] was “no binding (tested: 1000 nM)”.

B3: 2C8 IgG4 (antibody, V domains shown)
VH: QVQLQQSGPGLVKPSQTLSLTCAISGDTVSSNTAAWNWIRQSPSRGLEWLGRTYYRSKWYSDYGLSVKSRMTINADTSKNQVSLHLNSVTPEDTAVYYCAREGSGGTLIYWGQGTLVTVSS
VL: DIQLTQSPSSVSASVGDRVTITCRATQGISSWLAWYQQKPGKAPKLLIYAASSLQSGVPSRFSGSGSGTEFTLTISSLQPEDFATYYCQQANTLPLFTFGPGTKVDIK
notes: IgG4 format; also called IgG4 version of 2C8
For B3, the EC50 [2] was 20.9 nM and the EC50 [7] was 7 nM.

B4: anti-CTLA-4 antibody clone 2C8, human IgG1 (antibody, V domains shown)
VH: QVQLQQSGPGLVKPSQTLSLTCAISGDTVSSNTAAWNWIRQSPSRGLEWLGRTYYRSKWYSDYGLSVKSRMTINADTSKNQVSLHLNSVTPEDTAVYYCAREGSGGTLIYWGQGTLVTVSS
VL: DIQLTQSPSSVSASVGDRVTITCRATQGISSWLAWYQQKPGKAPKLLIYAASSLQSGVPSRFSGSGSGTEFTLTISSLQPEDFATYYCQQANTLPLFTFGPGTKVDIK
notes: also called 2C8 IgG; 2C8 IgG1
With B4 the EC50 [8] was 5 nM, the EC50 [2] was 4.9 nM and the Kd [9] was 9.6 nM. For the same binder, the EC50 [10] was 9.6 nM, the binding result [11] was “no binding” and the “EC50 (read off the curve)” value [12] was about 6 nM. For the same binder, the “EC50 (read off the curve)” value [13] was about 0.3 nM, the “EC50 (read off the curve)” value [14] was about 4 nM and the EC50 [15] was 0.0636 nM.

B5: anti-CTLA-4 antibody clone 2C8_gI, IgG1 (antibody, V domains shown)
VH: QVQLQQSGPGLVKPSQTLSLTCAISGDSVSSNTAAWNWIRQSPSRGLEWLGRTYYRSKWYSDYGLSVKSRITINPDTSKNQFSLQLNSVTPEDTAVYYCAREGSGGTLIYWGQGTLVTVSS
VL: DIQMTQSPSSVSASVGDRVTITCRATQGISSWLAWYQQKPGKAPKLLIYAASSLQSGVPSRFSGSGSGTDFTLTISSLQPEDFATYYCQQANTLPLFTFGPGTKVDIK
notes: IgG1; also called germline version of the antibody
B5 gave an EC50 [2] of 77.1 nM and an EC50 [16] of 23.5 nM.

B6: L3D10 (commercial mouse anti-human CTLA-4 IgG1) (antibody, V domains shown)
VH: QVQLKESGPGLVAPSQSLSITCTVSGFSLTSYGLSWVRQPPGKGLEWLGVIWYDGNTNFHSALISRLTISKDNSKSQVFLELNSLQTDDTATYYCAKTEGHYYGSNYGYYALDYWGQGTSVTVSS
VL: DIQMTQSPASLSVSVGETVTITCRASENIYSNLAWYQQKQGKSPQLLVYAATNLADGVPSRFSGSGSGTQYSLKINSLQSEDFGTYFCQHLWGTPYTFGGGTKLEIK
B6 was tested, and the “IC50 (read off the curve)” value [4] was about 1 nM.

Reference: patent US20170226211A1 (AGENCY OR SCIENCE TECHNOLOGY AND RESEARCH, published 2017)
